Experiments:
[1] = target: T1, TLR2 (Mus musculus, UniProt Q9EPQ1+Q9QUN7); assay: BP1569-induced TNF-α production by DC with TLR2 blocking antibody; format: cell-based, mice; conditions: BP1569 100 ng/ml, 24 h, anti-TLR2 T2.5 2.5 μg/ml
T1 construct: Bone marrow derived dendritic cells (DCs) were prepared by culturing bone marrow cells obtained from the femur and tibia of mice; endogenous in cells; host or cells: bone marrow-derived dendritic cells from C3H/HeJ mice (A3, A25) or C57BL/6 mice (A13)
T1 sequence (Q9QUN7 25-784): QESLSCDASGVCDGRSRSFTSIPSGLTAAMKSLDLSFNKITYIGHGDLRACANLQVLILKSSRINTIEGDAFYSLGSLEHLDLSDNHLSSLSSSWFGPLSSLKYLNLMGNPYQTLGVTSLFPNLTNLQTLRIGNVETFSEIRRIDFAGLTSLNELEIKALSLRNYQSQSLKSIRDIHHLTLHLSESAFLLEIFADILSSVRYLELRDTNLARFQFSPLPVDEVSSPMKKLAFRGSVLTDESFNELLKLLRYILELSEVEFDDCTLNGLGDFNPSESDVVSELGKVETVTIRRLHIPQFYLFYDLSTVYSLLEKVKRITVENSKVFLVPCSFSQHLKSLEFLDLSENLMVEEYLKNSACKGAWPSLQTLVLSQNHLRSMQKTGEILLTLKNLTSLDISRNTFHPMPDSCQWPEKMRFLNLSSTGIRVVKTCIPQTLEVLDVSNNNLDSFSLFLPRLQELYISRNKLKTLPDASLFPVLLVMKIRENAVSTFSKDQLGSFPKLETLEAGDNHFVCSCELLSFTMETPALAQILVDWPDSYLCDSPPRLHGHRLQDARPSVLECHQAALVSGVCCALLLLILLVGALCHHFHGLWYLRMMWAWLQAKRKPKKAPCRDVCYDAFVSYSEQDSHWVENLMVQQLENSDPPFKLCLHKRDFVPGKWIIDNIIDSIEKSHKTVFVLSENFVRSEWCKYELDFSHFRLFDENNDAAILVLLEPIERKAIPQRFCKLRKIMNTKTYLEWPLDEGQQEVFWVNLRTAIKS
T1 sequence (Q9EPQ1 26-795): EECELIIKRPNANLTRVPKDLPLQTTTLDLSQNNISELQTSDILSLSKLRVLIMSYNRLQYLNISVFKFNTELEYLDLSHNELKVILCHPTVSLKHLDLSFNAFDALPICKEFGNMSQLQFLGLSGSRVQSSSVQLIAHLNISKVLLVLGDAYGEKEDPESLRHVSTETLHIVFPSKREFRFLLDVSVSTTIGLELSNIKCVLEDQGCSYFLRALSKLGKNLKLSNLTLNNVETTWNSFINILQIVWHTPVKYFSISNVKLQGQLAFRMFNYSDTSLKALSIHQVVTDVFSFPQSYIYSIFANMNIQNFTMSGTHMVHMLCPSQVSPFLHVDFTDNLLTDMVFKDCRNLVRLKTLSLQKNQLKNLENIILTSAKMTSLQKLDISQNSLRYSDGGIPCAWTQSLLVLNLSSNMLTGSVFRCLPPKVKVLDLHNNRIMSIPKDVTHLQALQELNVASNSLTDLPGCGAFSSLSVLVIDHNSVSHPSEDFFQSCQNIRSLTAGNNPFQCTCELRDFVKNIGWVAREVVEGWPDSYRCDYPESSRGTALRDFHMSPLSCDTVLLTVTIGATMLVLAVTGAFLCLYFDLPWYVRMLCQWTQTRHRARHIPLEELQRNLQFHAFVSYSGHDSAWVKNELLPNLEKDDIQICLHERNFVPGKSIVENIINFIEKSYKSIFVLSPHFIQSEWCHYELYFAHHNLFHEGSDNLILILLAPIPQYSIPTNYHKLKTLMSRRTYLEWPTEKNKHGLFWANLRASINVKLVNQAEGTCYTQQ
Procedure: (§1) Lipase-treated or untreated BP1569 (100 ng/ml) was used to stimulate BMDC from C3H/HeJ mice.
(§2) Blocking antibodies were used against TLR2 to determine if the proteins can activate TLR2 specifically. […] Lipase treatment was used to confirm that the immunostimulatry effects of BP1569 were due the presence of the characteristic acyl side chain of the lipoprotein. The recombinant lipoprotein was incubated with two separate lipases for 18 h prior to stimulation of DC. Lipase treatment abolished BP1569-induced IL-12p40 and IL-6 production (FIG. 2E), but had no effect on cytokine production induced by the TLR9 agonist CpG (data not shown), confirming that BP1569 contains lipid side chains capable of triggering TLR2-induced inflammatory cytokine production.

[2] = target: T2, human TLR2 (Homo sapiens, UniProt O60603+Q15399); assay: NF-κB luciferase reporter assay in HEK 293T cells stably expressing TLR2; format: cell-based; conditions: 100 ng/ml, HEK 293T-TLR2, devoid of TLR4
T2 construct: expressed in transfected cells; host or cells: HEK 293T
T2 sequence (O60603 21-784): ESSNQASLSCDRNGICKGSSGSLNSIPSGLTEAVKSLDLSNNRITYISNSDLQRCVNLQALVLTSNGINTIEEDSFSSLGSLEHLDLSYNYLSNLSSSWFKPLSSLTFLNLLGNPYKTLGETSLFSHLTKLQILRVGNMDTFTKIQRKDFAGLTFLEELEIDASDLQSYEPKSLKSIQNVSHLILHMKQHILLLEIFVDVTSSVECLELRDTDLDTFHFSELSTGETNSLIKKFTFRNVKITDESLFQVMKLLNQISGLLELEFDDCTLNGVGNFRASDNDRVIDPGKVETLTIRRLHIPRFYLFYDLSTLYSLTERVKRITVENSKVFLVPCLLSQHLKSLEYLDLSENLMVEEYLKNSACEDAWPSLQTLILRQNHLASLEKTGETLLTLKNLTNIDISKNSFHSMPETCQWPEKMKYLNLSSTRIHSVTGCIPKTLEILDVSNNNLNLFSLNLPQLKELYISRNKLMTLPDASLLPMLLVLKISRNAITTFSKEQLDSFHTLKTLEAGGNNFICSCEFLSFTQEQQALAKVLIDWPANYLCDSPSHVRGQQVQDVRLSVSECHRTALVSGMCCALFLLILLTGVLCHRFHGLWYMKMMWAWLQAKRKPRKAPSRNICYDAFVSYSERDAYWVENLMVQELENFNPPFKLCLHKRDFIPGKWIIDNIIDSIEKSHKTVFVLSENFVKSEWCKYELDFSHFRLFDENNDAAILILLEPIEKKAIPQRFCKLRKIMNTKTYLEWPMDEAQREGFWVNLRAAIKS
T2 sequence (Q15399 25-786): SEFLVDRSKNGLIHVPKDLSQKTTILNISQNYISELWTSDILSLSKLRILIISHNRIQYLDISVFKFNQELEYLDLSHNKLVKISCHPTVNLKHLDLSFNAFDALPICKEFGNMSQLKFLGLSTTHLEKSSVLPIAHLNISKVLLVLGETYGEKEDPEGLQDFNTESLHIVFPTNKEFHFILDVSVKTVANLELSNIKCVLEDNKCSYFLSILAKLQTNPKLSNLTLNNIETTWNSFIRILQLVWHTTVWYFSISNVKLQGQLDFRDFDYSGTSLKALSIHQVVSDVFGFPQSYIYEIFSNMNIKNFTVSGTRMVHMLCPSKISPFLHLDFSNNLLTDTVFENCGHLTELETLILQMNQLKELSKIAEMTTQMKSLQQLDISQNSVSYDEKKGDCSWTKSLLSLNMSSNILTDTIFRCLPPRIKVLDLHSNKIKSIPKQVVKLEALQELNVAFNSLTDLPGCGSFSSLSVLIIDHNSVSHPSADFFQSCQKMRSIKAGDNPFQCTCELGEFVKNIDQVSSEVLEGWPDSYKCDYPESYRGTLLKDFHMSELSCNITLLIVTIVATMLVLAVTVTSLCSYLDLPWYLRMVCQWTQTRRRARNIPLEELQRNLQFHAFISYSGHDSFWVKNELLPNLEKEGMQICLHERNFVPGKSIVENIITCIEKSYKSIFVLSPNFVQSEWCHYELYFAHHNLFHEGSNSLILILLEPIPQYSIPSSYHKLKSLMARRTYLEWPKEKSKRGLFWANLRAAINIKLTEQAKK
Procedure: (§3) Luciferase activity was quantified after 24 h. […] IL-8 production was quantified after 24 h. […] After 24 h, the concentrations of IL-6 in supernatants were determined by ELISA.
HEK 293T cells stably expressing human TLR2 were transfected with an NF-κB luciferase construct as described previously (21) and stimulated overnight with the indicated concentrations of BP1569.
(§4) Cytokine production by TLR2 requires activation of the transcription factors NF-κB and p38 MAP kinase. To determine if BP1569 activates NF-κB, HEK 293T cells stably expressing TLR2, but devoid of TLR4, were transfected with an NF-κB luciferase reporter construct. […] To assess activation of the MAP kinase pathway, spleen cells from C3H/HeJ mice were stimulated with BP1569. […] TLR agonists can bind to TLR1/2 or TLR2/6 heterodimers, therefore, the role of these TLRs using specific blocking antibodies to human TLR1 and TLR6 was examined.

[3] = target: T2, human TLR2; assay: IL-8 production by TLR2 transfected HEK 293T cells; format: cell-based; conditions: HEK 293T-TLR2, 24 h
Procedure: as §3, §4

[4] = tested on: bone marrow-derived DCs from TLR4-defective C3H/HeJ mice; assay: Cytokine production by bone marrow-derived DC stimulated with BP1569 (ELISA); format: cell-based; conditions: BP1569 100 and 1000 ng/ml, 24 h
Procedure: as §1
(§5) Bone marrow derived dendritic cells (DCs) were prepared by culturing bone marrow cells obtained from the femur and tibia of mice in complete RPMI (cRPMI, RPMI containing 10% fetal calf serum, 100 U/ml penicillin, 100 μg/ml streptomycin, 2 mM 1-glutamine (Invitrogen), and 50 μM 2-ME (Sigma-Aldrich) supplemented with GM-CSF 40 ng/ml. Cells were re-cultured with fresh medium containing 40 ng/ml GM-CSF every 3 d for a period of 8 d. DC were seeded at 1×10^6 cells per ml 24 hr prior to stimulation. ELISA assays were performed using R&D kits according to the manufacturer's instructions. Spleen cells from C3H/HeJ mice were seeded at 2×10^6 cells per ml and stimulated with Pam3Cys4 (120nM) or BP1569 (120 nM) for the indicated times, with or without addition of T2.5-anti-TLR2 antibody or an isotype control (Hycult Biotech). For p38 activation assays, samples were lysed with RIPA buffer and SDS-PAGE was performed followed by Western blotting with anti-phospho-p38 and β-actin antibodies (Cell Signaling).
(§6) The present inventors examined the capacity of pertussis lipoprotein to activate innate immune cells in vitro using bone marrow-derived DCs from TLR4-defective C3H/HeJ mice. […] Furthermore, stimulation of DCs with BP1569 for 24 hours enhanced surface expression of MHC class II, CD80 and CD86 detectable by flow cytometry (FIG. 2C).

[5] = target: T3, human TLR1 (Homo sapiens, UniProt O60603+Q15399); assay: BP1569-induced IL-6 in human PBMC with TLR1 blocking antibody; format: cell-based; conditions: 100 ng/ml, 24 h
T3 construct: endogenous in cells; host or cells: human PBMC
T3 sequence (Q15399 25-786): as above
T3 sequence (O60603 21-784): as the sequence (O60603 21-784) above
Procedure: as §3, §4

[6] = tested on: BMDC from C3H/HeJ mice; assay: Lipase treatment of lipoprotein before stimulation of DC; format: cell-based; conditions: lipase from Aspergillus or Pseudomonas, 18 h
Procedure: as §1, §2

[7] = tested on: C3H/HeJ mice; assay: Antigenicity of BP1569: footpad immunization, lymph node cell re-stimulation; format: in vivo; conditions: 10 μg footpad
Procedure: (§7) After 3 h serum IL-12 and IL-6 concentrations were quantified by ELISA. […] After seven days the draining lymph node was harvested and cells were stimulated with BP1569 (2 μg/ml). […] After seven days the draining lymph node was harvested and cells were stimulated with total heat killed B. pertussis 1-100×10^6/ml).
C3H/HeJ mice were injected into the footpad with BP1569 (10 μg) diluted in PBS or with PBS only. After seven days the draining lymph node was harvested and the lymph node cells were stimulated with either BP1569 (2 μg/ml) or heat killed B. pertussis pertussis (1-100×10^6/ml). After 3 days of culture, the concentration of IFN-γ in supernatants was quantified by ELISA.
The possibility that BP1569 was immunogenic in vivo and capable of inducing B. pertussis-specific immune responses was examined. C3H/HeJ mice were injected into the footpad with BP1569 (10 μg) diluted in PBS or with PBS only. After seven days the draining lymph node was harvested and the lymph node cells were stimulated with either BP1569 (2 μg/ml) or heat killed B. pertussis.

[8] = tested on: C3H/HeJ mice; assay: Cytokine induction in vivo by BP1569 (serum ELISA); conditions: 70 μg intraperitoneally, 3 h, versus PBS controls
Procedure: as §7
C3H/HeJ mice were treated intraperitoneally with BP1569 (70 μg) or PBS control and serum cytokines were measured by ELISA after 3h.
C3H/HeJ mice were treated intraperitoneally with BP1569 (70 μg) and serum cytokines were measured after 3 h.

[9] = tested on: p38 MAP kinase; assay: p38 phosphorylation in spleen cells (Western blot); format: cell-based; conditions: spleen cells from C3H/HeJ mice
Procedure: as §3, §5
Cytokine production by TLR2 requires activation of the transcription factors NF-κB and p38 MAP kinase. […]

[10] = target: T4, human TLR6 (Homo sapiens, UniProt Q9Y2C9); assay: BP1569-induced IL-6 in human PBMC with anti-TLR6 antibody; format: cell-based; conditions: 100 ng/ml, 24 h
T4 construct: endogenous in cells; host or cells: human PBMC
T4 sequence (O60603 21-784 partner): as the sequence (O60603 21-784) above
T4 sequence (Q9Y2C9 32-796): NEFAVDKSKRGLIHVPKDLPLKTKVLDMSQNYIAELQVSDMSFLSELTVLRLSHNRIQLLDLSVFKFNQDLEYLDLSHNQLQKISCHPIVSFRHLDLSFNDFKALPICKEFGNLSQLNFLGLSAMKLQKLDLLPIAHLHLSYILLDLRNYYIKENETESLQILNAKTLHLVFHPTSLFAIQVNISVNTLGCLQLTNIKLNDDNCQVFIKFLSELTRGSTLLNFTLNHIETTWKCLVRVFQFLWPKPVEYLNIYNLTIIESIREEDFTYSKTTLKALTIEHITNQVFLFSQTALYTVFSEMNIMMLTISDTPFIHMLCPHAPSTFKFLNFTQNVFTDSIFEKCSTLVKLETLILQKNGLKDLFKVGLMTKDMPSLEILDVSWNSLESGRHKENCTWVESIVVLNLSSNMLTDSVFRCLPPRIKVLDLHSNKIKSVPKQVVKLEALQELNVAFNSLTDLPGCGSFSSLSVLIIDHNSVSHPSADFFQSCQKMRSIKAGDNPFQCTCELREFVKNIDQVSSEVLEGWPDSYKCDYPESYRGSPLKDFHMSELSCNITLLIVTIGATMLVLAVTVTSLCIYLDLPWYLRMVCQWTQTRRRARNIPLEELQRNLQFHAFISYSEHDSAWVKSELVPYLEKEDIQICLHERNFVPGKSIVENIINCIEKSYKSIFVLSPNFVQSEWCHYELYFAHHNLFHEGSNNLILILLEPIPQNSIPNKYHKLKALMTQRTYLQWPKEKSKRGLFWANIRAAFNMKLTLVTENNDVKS
Procedure: as §3, §4

[11] = tested on: DC from C3H/HeJ mice; assay: DC maturation: surface expression of MHC class II, CD80, CD86 by flow cytometry; format: cell-based; conditions: 100 ng/ml, 24 hours vs medium only
Procedure: as §1
Following stimulation, DC were stained with CD11c (clone N418; eBioscience), MHCII (clone M5/114.15.2 ebioscience), CD80 (clone 16-10A1 eBioscience) and CD86 (clone […] eBioscience). Samples were analyzed with a FACS DIVA and FloJo software.
as §6

[12] = tested on: TLR2; assay: BP2992 activity as TLR2 ligand (data not shown)
Source text: C-terminal histidine versions of the putative lipoproteins were constructed and expressed in E. coli by IPTG induction. BP1569 and BP2992 were successfully expressed and purified by nickel affinity followed by ion-exchange chromatography. […] Therefore, the inventors adopted a strategy of carrying out all initial studies with lipoproteins in TLR4 defective cells or mice and then synthesized lipopeptide versions of the lipoproteins for more thorough immunological analysis.

[13] = target: T1, TLR2; assay: BP2992 cytokine production by DC with anti-TLR2 antibody; format: cell-based, mice; conditions: with or without anti-TLR2 T2.5 2.5 μg/ml, 24 hours
Procedure: After 24 hours IL-6 production was measured by ELISA. […] After 24 hours TNF-α production was measured by ELISA.

[14] = tested on: dendritic cells from C3H/HeJ mice; assay: BP2992 maturation and cytokine production by dendritic cells; format: cell-based; conditions: 24 h
Procedure: Lane 1: 5 ng BP2992; lane 2: 10 ng BP2992.

[15] = tested on: human peripheral blood mononuclear cells (PBMC); assay: BP2992 cytokine production from human PBMC; format: cell-based; conditions: 0.01-1 μg/ml, 24 h, two donors
Procedure: PBMC from two human donors (A and B) were treated with BP2992 (0.01-1 μg/ml), After 24 h, the concentrations of TNF-α in supernatants were determined by ELISA.

B1: BP1569: full length B. pertussis lipoprotein BP1569, ~40 kDa, TLR2 agonist (protein, listed as Bordetella pertussis)
chain: MRMNKRHAGASALMALALLAGCSDVNQLLGNEESVDYKSTRRGDPLSIPPDLTQANNDPRYKAPASGTATYSQFQQQGLQQQASAGQNTNVLPERADMRVERDGDLRWLVIERPPEQLFSKVVDFWTDTGFTVSVNNPQAGIIETDWAENRAKIPESWLRQVLGSVLETAWDSGEREKFRTRVERVNGHTEIYITHNQMLEKRVGSDGGQVQWTHGKEDPGLNAAMLARLMVYLGTDVDAARKLVAQAEAAPQAPKVQSVRAEGAMLVVDESFDRAWRRVGVALDSGGFAVDDRDRSAGEYFVRYVDTDTGAQNEQPGFFSRLFSSDKKAQAPQYRIRLTGSGTQTQVTVLDANGQRDSSATAQRMLSVLKDKMV
BP1569-induced TNF-α production in the presence of the TLR2 blocking antibody [1]: completely abrogated
luciferase activity (NF-κB reporter) [2]: significant increase
IL-8 production [3]: increased
IL-6 production by DC [4]: induced robust
IL-12 production by DC [4]: induced robust
IL-23 production by DC [4]: induced robust
TNF-α production by DC [4]: induced robust
BP1569-induced IL-6 production with TLR1 blocking antibody [5]: significantly reduced
effect of lipase treatment on induced IL-6 production ([6]; 100 ng/ml on DC): abolished
effect of lipase treatment on induced IL-12p40 production ([6]; then DC stimulation): abolished
BP1569-specific IFN-γ by lymph node cells ([7]; day 7, re-stimulated with BP1569 2 μg/ml): induced at significant levels
IFN-γ upon re-stimulation with heat killed B. pertussis ([7]; day 7 lymph node cells): produced IFN-γ
serum IL-6 [8]: Significant concentrations
serum IL-12 [8]: Significant concentrations
p38 phosphorylation ([9]; 15 minutes following stimulation): enhanced
p38 phosphorylation with anti-TLR2 blocking antibody ([9]; T2.5 2.5 μg/ml): inhibited
BP1569-induced IL-6 production with anti-TLR6 antibody [10]: little effect
surface expression of CD80 [11]: enhanced
surface expression of CD86 [11]: enhanced
surface expression of MHC class II [11]: enhanced

B2: BP2992: full length B. pertussis lipoprotein BP2992, ~16 kDa (protein, listed as Bordetella pertussis)
chain: NYMHSPSVVAGRARRLLAVAAVAGSVAVLAGCANPSASSGVYTYGQAQREQIVRTGTVTGVRPITIQNDKSSGVGLVAGGALGGVAGNAVGGGTGRTIATVGGVILGALAGNAIENRAGKSSGYEITVRLDNGETRVVAQEADVPISVGQRVQVISGAGPTRVTPY
ligand activity for TLR2 [12]: immunologically active ligand for TLR2
TLR2 dependence of pro-inflammatory cytokine production by DCs (IL-6, TNF-α) [13]: in a TLR2 dependent manner
maturation of dendritic cells (MHC class II, CD80, CD86) ([14]; 100 ng/ml): induces
pro-inflammatory cytokine production by dendritic cells ([14]; 50, 100 and 1000 ng/ml): induces
pro-inflammatory cytokine production (TNF-α) from human PBMC [15]: induces

— US11497805B2, “Toll-like receptor 2 agonists and vaccines and uses thereof” (The Provost, Fellows, Foundation Scholars & the Other …, priority 2014, dated 2022)
